Results on two substances are retold here after article PMC3623905.

Several values for one entry are separate records, joined by “and”; a condition that tells them apart may be missing. Equal values may be shown once.

Test [1] addresses Insulin-degrading enzyme wild type (rat). The experiment in a line: SEC with static light scattering (SLS); 200 μg injected into a Superdex G-200 column, working buffer, 0.5 ml/min; 90° light scattering with UV or refractive index; calibrated with BSA.
Test [2] addresses Proteolytically inactive recombinant insulin-degrading enzyme with Glu111 replaced by Gln (rat). The test is described as above.

As to Insulin-degrading enzyme wild type, the stoichiometry N in test [1] is 4 and 2.
On to “Proteolytically inactive recombinant insulin-degrading enzyme with Glu111 replaced by Gln”, for which the stoichiometry N in test [2] was 2 and 4.

As usually defined, the stoichiometry N is the number of molecules, sites or subunits per partner or assembly.
